Measured values published in patent publication US20240150422A1 (ONKO INNATE, published 2024).
Positions count from the first letter of the chain named. In names and notes the source's numbering stands.

T1: wild-type IL-12 heterodimeric Fc fusion protein (IgG1Fc(knob)-IL12p35 / IgG1Fc(hole)-IL12p40) (human, UniProt P29459 23-219; P29460 23-328)
T1 construct: also called wild-type IL-12 Fc; IL-12 Fc wt; not shown: human IgG1 Fc (knob) with artificial disulfide and N297G; human IgG1 Fc (hole) with artificial disulfide and N297G
T1 sequence 1: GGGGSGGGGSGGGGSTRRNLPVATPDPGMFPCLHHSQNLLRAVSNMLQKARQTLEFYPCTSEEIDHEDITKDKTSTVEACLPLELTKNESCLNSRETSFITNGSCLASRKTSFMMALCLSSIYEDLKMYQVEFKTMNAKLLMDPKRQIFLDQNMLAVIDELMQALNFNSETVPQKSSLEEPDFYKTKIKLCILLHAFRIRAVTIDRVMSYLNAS
T1 sequence 2: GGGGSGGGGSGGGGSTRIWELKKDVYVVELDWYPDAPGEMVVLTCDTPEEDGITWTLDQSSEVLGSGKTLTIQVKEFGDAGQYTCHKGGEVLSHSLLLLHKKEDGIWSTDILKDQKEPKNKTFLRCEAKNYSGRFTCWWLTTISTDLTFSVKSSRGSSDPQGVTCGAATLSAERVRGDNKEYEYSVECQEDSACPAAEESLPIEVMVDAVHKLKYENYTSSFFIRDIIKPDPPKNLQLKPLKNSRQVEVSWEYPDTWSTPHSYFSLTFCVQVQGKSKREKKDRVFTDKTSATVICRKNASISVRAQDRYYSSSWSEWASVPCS

B1: IL-12 Fc K170A mutant (Fc-C-terminal fusion format of Example 1) (Fc fusion, not shown: a dimerising Fc or GST)
chain 1: T1 sequence 1 with K187A
chain 2: T1 sequence 2
B2: IL-12 Fc single mutant Y40A (Fc-C-terminal fusion format of Example 1) (Fc fusion, not shown: a dimerising Fc or GST)
chain 1: T1 sequence 1 with Y57A
chain 2: T1 sequence 2
B3: IL-12 Fc single mutant K168A (Fc-C-terminal fusion format of Example 1) (Fc fusion)
chain 1: T1 sequence 1 with K185A
chain 2: T1 sequence 2
notes: not shown: human IgG1 Fc (knob) with artificial disulfide and N297G; human IgG1 Fc (hole) with artificial disulfide and N297G
B4: truncated form of the IL-12Rβ2 extracellular region (domains 1-3) (receptor)
chain: KIDACKRGDVTVKPSHVILLGSTVNITCSLKPRQGCFHYSRRNKLILYKFDRRINFHHGHSLNSQVTGLPLGTTLFVCKLACINSDEIQICGAEIFVGVAPEQPQNLSCIQKGEQGTVACTWERGRDTHLYTEYTLQLSGPKNLTWQKQCKDIYCDYLDFGINLTPESPESNFTAKVTAVNSLGSSSSLPSTFTFLDIVRPLPPWDIRIKFQKASVSRCTLYWRDEGLVLLNRLRYRPSNSRLWNMVNVTKAKGRHDLLDLKPFTEYEFQISSKLHLYKGSWSDWSESLRAQTPEE
notes: also called interleukin 12 receptor beta 2
B5: IL-12 Fc single mutant D126A (Fc-C-terminal fusion format of Example 1) (Fc fusion)
chain 1: T1 sequence 1 with D143A
chain 2: T1 sequence 2
notes: as for B3
B6: IL-12 Fc single mutant P127A (Fc-C-terminal fusion format of Example 1) (Fc fusion)
chain 1: T1 sequence 1 with P144A
chain 2: T1 sequence 2
notes: as for B3

Assays:
[1] = biological target: IL-12 receptor on HEK-Blue IL-12 cells (InvivoGen) (human, UniProt P42701 24-662; Q99665 24-862); assay: cell-based or functional assay
[2] = biological target: B4; assay: SPR (Biacore T100, 20 C); IL-12 Fc captured on a protein A chip (230 RU), IL-12Rbeta2 (domains 1-3) as analyte; 1:1 Langmuir model
Protocol: (§1) SPR measurements were recorded on a Biacore T100 at 20° C. in a buffer comprising 20 mM sodium phosphate pH 7.4, 150 mM NaCl and 0.05% Tween20. […] Following a 300 second dissociation phase, the remaining bound IL-12Rβ2 was washed off the chip using 50 mM Glycine pH 2.5, followed by 50 mM NaOH (30 second injections for each). Kinetic parameters were calculated using BIAevaluation software using a 1:1 Langmuir model, following subtraction of binding to a reference flow cell containing an isotype control antibody.

[3] = biological target: T1, wild-type IL-12 heterodimeric Fc fusion …; assay: SPR as in Example 3; immobilized IL-12 Fc, IL-12Rbeta2 injected at 0.7-500 nM
Protocol: as §1

[4] = biological target: T1, wild-type IL-12 heterodimeric Fc fusion …; assay: SPR (Biacore T100, 20 °C), IL-12 Fc captured on protein A chip, IL-12Rβ2 domains 1-3 as analyte, 1:1 Langmuir model
Protocol: as §1

[5] = biological target: B4; assay: SPR (Biacore T100, 20 C); IL-12 Fc captured on a protein A chip (220 RU), IL-12Rbeta2 (domains 1-3) as analyte; 1:1 Langmuir model
Protocol: as §1

[6] = biological target: B4; assay: SPR (Biacore T100, 20 C); IL-12 Fc captured on a protein A chip (190 RU), IL-12Rbeta2 (domains 1-3) as analyte; 1:1 Langmuir model
Protocol: as §1

Binder: B1
- HEK-Blue IL-12 reporter assay, fold reduction in EC50 value [1]: ~16 fold (vs wild-type)

Binder: B2
- HEK-Blue IL-12 reporter assay, fold reduction in EC50 value [1]: ~17 fold (vs IL-12 Fc w.t.)
- HEK-Blue IL-12 reporter assay, fold reduction in potency [1]: ~29 fold (vs IL-12 Fc w.t.)

Binder: B3
- Kd [2]: 130 nM

Binder: B4
- Kd [3]: 53.2 nM
- Kd [4]: 13.1 nM

Binder: B5
- Kd [5]: 42.9 nM

Binder: B6
- Kd [6]: 44.3 nM
- HEK-Blue IL-12 reporter assay, fold reduction in potency [1]: ~2 fold (vs IL-12 Fc w.t.)
